Measured values published in PMC9512828.

B1: PTH1R-WT coupled to a C-terminal HaloTag (parathyroid hormone 1 receptor) [not stated] / β-arrestin2-dFLR (finger-loop region Y64 to K78 deleted) C-terminally fused to Nanoluciferase [not stated] (parent)
chain 1: MGEKPGTRVFKKSSPNCKLTVYLGKRDFVDHLDKVDPVDGVVLVDPDYLKDRKVFVTLTCAFRDLFIANYQAFPPTPNPPRPPTRLQERLLRKLGQHAHPFFFTIPQNLPCSVTLQPGPEDTGKACGVDFEIRAFCAKSLEEKSHKRNSVRLVIRKVQFAPEKPGPQPSAETTRHFLMSDRSLHLEASLDKELYYHGEPLNVNVHVTNNSTKTVKKIKVSVRQYADICLFSTAQYKCPVAQVEQDDQVSPSSTFCKVYTITPLLSNNREKRGLALDGKLKHEDTNLASSTIVKEGANKEVLGILVSYRVKVKLVVSRGGDVSVELPFVLMHPKPHDHIALPRPQSAATHPPTLLPSAVPETDAPVDTNLIEFETNYATDDDIVFEDFARLRLKGLKDEDYDDQFC
chain 2: DADDVMTKEEQIFLLHRAQAQCEKRLKEVLQRPASIMESDKGWTSASTSGKPRKDKASGKLYPESEEDKEAPTGSRYRGRPCLPEWDHILCWPLGAPGEVVAVPCPDYIYDFNHKGHAYRRCDRNGSWELVPGHNRTWANYSECVKFLTNETREREVFDRLGMIYTVGYSVSLASLTVAVLILAYFRRLHCTRNYIHMHLFLSFMLRAVSIFVKDAVLYSGATLDEAERLTEEELRAIAQAPPPPATAAAGYAGCRVAVTFFLYFLATNYYWILVEGLYLHSLIFMAFFSEKKYLWGFTVFGWGLPAVFVAVWVSVRATLANTGCWDLSSGNKKWIIQVPILASIVLNFILFINIVRVLATKLRETNAGRCDTRQQYRKLLKSTLVLMPLFGVHYIVFMATPYTEVSGTLWQVQMHYEMLFNSFQGFFVAIIYCFCNGEVQAEIKKSWSRWTLALDFKRKARSGSSSYSYGPMVSHTSVTNVGPRVGLGLPLSPRLLPTATTNGHPQLPGHAKPGTPALETLETTPPAMAAPKDDGFLNGSCSGLDEEASGPERPPALLQEEWETVM
B2: PTH1R-WT coupled to a C-terminal HaloTag (parathyroid hormone 1 receptor) [not stated] / β-arrestin1 WT C-terminally fused to Nanoluciferase [not stated] (parent)
chain 1: MGDKGTRVFKKASPNGKLTVYLGKRDFVDHIDLVDPVDGVVLVDPEYLKERRVYVTLTCAFRYGREDLDVLGLTFRKDLFVANVQSFPPAPEDKKPLTRLQERLIKKLGEHAYPFTFEIPPNLPCSVTLQPGPEDTGKACGVDYEVKAFCAENLEEKIHKRNSVRLVIRKVQYAPERPGPQPTAETTRQFLMSDKPLHLEASLDKEIYYHGEPISVNVHVTNNTNKTVKKIKISVRQYADICLFNTAQYKCPVAMEEADDTVAPSSTFCKVYTLTPFLANNREKRGLALDGKLKHEDTNLASSTLLREGANREILGIIVSYKVKVKLVVSRGGLLGDLASSDVAVELPFTLMHPKPKEEPPHREVPENETPVDTNLIELDTNDDDIVFEDFARQRLKGMKDDKEEEEDGTGSPQLNNR
chain 2: B1 chain 2

Assays:
[1] = variants of: B1; assay: NanoBRET recruitment assay in living cells; details: with β-arrestin2-dFLR (finger-loop region Y64 to K78 deleted) C-terminally fused to Nanoluciferase, point at the highest PTH(1-34) concentration (about 3 µM), partner is β-arrestin2-dFLR, read off a plot
[2] = variants of: B2; assay: NanoBRET recruitment assay in living cells; details: with β-arrestin1 WT C-terminally fused to Nanoluciferase, point at the highest PTH(1-34) concentration (about 3 µM), read off a plot

| response ([1]; HEK-WT + EV, parent: 1.4) | response ([1]; ΔQ-GRK + EV, parent: 1) | response ([1]; ΔQ-GRK + GRK2, parent: 1.3) | response ([2]; HEK-WT + EV, parent: 5.9) | response ([2]; HEK-WT cells, parent: 5.9) | response ([2]; ΔQ-GRK + EV, parent: 1.4) | response ([2]; ΔQ-GRK + GRK2, parent: 5.3) | Variant |
| --- | --- | --- | --- | --- | --- | --- | --- |
| 1.4 fold change | 1 fold change | 1.3 fold change |  |  |  |  | chain 2 DADDVMTKEEQIFLLHRAQAQCEKRLKEVLQRPASIMESDKGWTSASTSGKPRKDKASGKLYPESEEDKEAPTGSRYRGRPCLPEWDHILCWPLGAPGEVVAVPCPDYIYDFNHKGHAYRRCDRNGSWELVPGHNRTWANYSECVKFLTNETREREVFDRLGMIYTVGYSVSLASLTVAVLILAYFRRLHCTRNYIHMHLFLSFMLRAVSIFVKDAVLYSGATLDEAERLTEEELRAIAQAPPPPATAAAGYAGCRVAVTFFLYFLATNYYWILVEGLYLHSLIFMAFFSEKKYLWGFTVFGWGLPAVFVAVWVSVRATLANTGCWDLSSGNKKWIIQVPILASIVLNFILFINIVRVLATKLRETNAGRCDTRQQYRKLLKSTLVLMPLFGVHYIVFMATPYTEVSGTLWQVQMHYEMLFNSFQGFFVAIIYCFCNGEVQAEIKKSWSRWTLALDFKRKARAGAAAYAYGPMVSHTSVTNVGPRVGLGLPLSPRLLPTATTNGHPQLPGHAKPGTPALETLETTPPAMAAPKDDGFLNGSCSGLDEEASGPERPPALLQEEWETVM [chain 2 S463A S465A S466A S467A S469A] |
|  |  |  | 5.8 fold change | 5.9 fold change | 1.7 fold change | 6.3 fold change | chain 2 DADDVMTKEEQIFLLHRAQAQCEKRLKEVLQRPASIMESDKGWTSASTSGKPRKDKASGKLYPESEEDKEAPTGSRYRGRPCLPEWDHILCWPLGAPGEVVAVPCPDYIYDFNHKGHAYRRCDRNGSWELVPGHNRTWANYSECVKFLTNETREREVFDRLGMIYTVGYSVSLASLTVAVLILAYFRRLHCTRNYIHMHLFLSFMLRAVSIFVKDAVLYSGATLDEAERLTEEELRAIAQAPPPPATAAAGYAGCRVAVTFFLYFLATNYYWILVEGLYLHSLIFMAFFSEKKYLWGFTVFGWGLPAVFVAVWVSVRATLANTGCWDLSSGNKKWIIQVPILASIVLNFILFINIVRVLATKLRETNAGRCDTRQQYRKLLKSTLVLMPLFGVHYIVFMATPYTEVSGTLWQVQMHYEMLFNSFQGFFVAIIYCFCNGEVQAEIKKSWSRWTLALDFKRKARAGAAAYAYGPMVSHTSVTNVGPRVGLGLPLSPRLLPTATTNGHPQLPGHAKPGTPALETLETTPPAMAAPKDDGFLNGSCSGLDEEASGPERPPALLQEEWETVM [chain 2 S463A S465A S466A S467A S469A] |
|  |  |  | 2.9 fold change | 2.9 fold change | 2 fold change | 2.7 fold change | chain 2 DADDVMTKEEQIFLLHRAQAQCEKRLKEVLQRPASIMESDKGWTSASTSGKPRKDKASGKLYPESEEDKEAPTGSRYRGRPCLPEWDHILCWPLGAPGEVVAVPCPDYIYDFNHKGHAYRRCDRNGSWELVPGHNRTWANYSECVKFLTNETREREVFDRLGMIYTVGYSVSLASLTVAVLILAYFRRLHCTRNYIHMHLFLSFMLRAVSIFVKDAVLYSGATLDEAERLTEEELRAIAQAPPPPATAAAGYAGCRVAVTFFLYFLATNYYWILVEGLYLHSLIFMAFFSEKKYLWGFTVFGWGLPAVFVAVWVSVRATLANTGCWDLSSGNKKWIIQVPILASIVLNFILFINIVRVLATKLRETNAGRCDTRQQYRKLLKSTLVLMPLFGVHYIVFMATPYTEVSGTLWQVQMHYEMLFNSFQGFFVAIIYCFCNGEVQAEIKKSWSRWTLALDFKRKARSGSSSYSYGPMVAHAAVANVGPRVGLGLPLSPRLLPTATTNGHPQLPGHAKPGTPALETLETTPPAMAAPKDDGFLNGSCSGLDEEASGPERPPALLQEEWETVM [chain 2 S475A T477A S478A T480A] |
